Results: paper PMC6203815 (Nature Communications, 2018)
Residue numbers refer to the chain shown, from its start.

B1: HC2-LC2 (antibody, V domains shown)
VH: EVQLVESGGGLVQPGGSLRLSCAASGFTFNNYWMSWVRQAPGKGLEWVASISNIGGTIYYPDSVKGRFTISRDSAKNSLYLQMNSLRAEDTAVYYCTRDLRMSDYFDYWGQGTLVTVSS
VL: QFVLTQPHSVSESPGKTVTISCKRSTGNIGSNYVSWYQQRPGSSPTTVIYRDDQRPSGVPDRFSGSIDRSSNSASLTISGLKTEDEADYYCHSYSTGMYIFGGGTKLTVL
B2: HC1-LC2 (antibody, V domains shown)
VH: B1 VH with S74N
VL: B1 VL
B3: HC1-LC1 (antibody, V domains shown)
VH: B1 VH with S74N
VL: B1 VL with Q1N, V3M, K23T
B4: HC2-LC3 (antibody, V domains shown)
VH: B1 VH
VL: B1 VL with V3M, K23T, S44A, G80R
B5: HC1-LC3 (antibody, V domains shown)
VH: B1 VH with S74N
VL: B1 VL with V3M, K23T, S44A, G80R

Target: Pfs48/45 6C domain (NF54) (Plasmodium falciparum NF54, UniProt V5NSK3)

Binder | binding result
B1 | binds
B2 | binds
B3 | binds
B4 | binds
B5 | binds
